Test results reported in article PMC5829233, “PV1, a novel Plasmodium falciparum merozoite dense granule protein, interacts with exported protein in infected erythrocytes” (Scientific Reports, 2018).

B1: recombinant PfPV1 (P. falciparum Parasitophorous Vacuolar protein 1), His-tagged (natural protein)
chain: VVAPKSAEAVHTLTAKLDTENKAHQKYIDIINGVFSENMENFVFSITTSNGFTCSINKLDVIFDNKVTGMQKVFSDENVQYIKEASLEFKNNLLEYMKGVMPSENDFSNVRKEFQKVCVKYFSELRRKFFQIYRDPNNKNQNEDNVDNHMNIEEISQEFFSGFNPFGTMKIRKEQNPDLSQKDSLILNENNNDSLTSADQKNNNMVPMENRSFSYSQQSSHVVSFDGHDEHVEQQEQHSGDNTQEDKDQLMDLPFNKDKVFSTFLKNVTLLIEGNCTEAQQQAQEQTQEQTEEQEEEQNEKEIESDKQVQKDGEQKENDVQKKQKANAFTIQFSSSLSRKHISTTCNASSGNVFLRKGNKPFEHFNSPNFENMMKGVFGIIQNPFENGQPTFPFFKNINSISGIGNVDIPKNFMNDFLNNGNDQNTPISS
notes: also called His-tagged purified recombinant PfPV1; not shown: His6, C-terminal, kept
B2: PTP5_Tr0, GST-tagged recombinant PTP5 36 aa - 631 aa (domain or fragment)
chain: TYNNYTYNGYNNDGSKQVRCKRLLSEPAVEFDTIFDVFKESFLDQMGCSDQDKDEIKNAMKIYYDNIDMNALSNEIQTNDNFFNEFGNDVNSINKIMKTDITNEQGTSADNNTTENNVSTSQVDEQPEASTSGVERMKERSNLFANNLTEEKNDTGDIKKEENKSKPSQLDGNNHSETSSHQGEKNNENETEKKTDQNETGTKKPSKYTMNLDSPLLKGSSEGETSSKKAQEKSVEPTKKPSKYTMNLDSPLLKGSSGSETSSTKESNDSNGATKKPSKYTMNLDSPLLKGSSGGKTSSNKESNESNEPTKKPSKYTMNLDSPLLKGSSGGETSSNKESNENNEPTKKPSKYTMNLDSPLLKGSSEGETSSNKESNESNEPTKKPSKYTMNLDSPLLKGSSGGETSSNKESNENNEPTKKPSKYTMNLDSPLLKGSSEGETSSNKESNESNEPTKKPSKYTMNLDSPLLKGSSEGETSSNEKQEESNVATKKPSKYTLNLDSPLLKSETKSDVKRGSNKSFSLENIGKLDIGSLLAQNLELLKGFALNFQTLSLFFLVFVGQFYPKHFQKAAIFIGMVNVFLECKRLYGRSQKKLK
notes: not shown: GST, N-terminal, kept

How the values were obtained:
[1] = target: recombinant PfPV1 (P. falciparum Parasitophorous Vacuolar protein 1), His-tagged (P. falciparum 3D7) (UniProt Q8II72); assay: SPR; Biacore X100, CM5 chip, […]; HBS-EP+ (10 mM HEPES pH 7.4, 150 mM NaCl, 3 mM EDTA, 0.05% P20); single-cycle kinetics, global fit
[2] = target: recombinant PfPV1 (P. falciparum Parasitophorous Vacuolar protein 1), His-tagged (P. falciparum 3D7) (UniProt Q8II72); assay: SPR; Biacore X100, CM5 chip, […]; HBS-EP+ (10 mM HEPES pH 7.4, 150 mM NaCl, 3 mM EDTA, 0.05% P20); multi-cycle kinetics, global fit
[3] = target: B2; assay: SPR; Biacore X100, CM5 chip, […]; HBS-EP+ (10 mM HEPES pH 7.4, 150 mM NaCl, 3 mM EDTA, 0.05% P20); single-cycle kinetics, global fit; details: both partners purified
[4] = target: B1; assay: as above; details: both partners purified
[5] = target: T1, recombinant PfPV1 (P. falciparum Parasitophorous Vacuolar protein 1), His-tagged (P. falciparum 3D7, UniProt Q8II72 23-452); assay: SPR
T1 chain: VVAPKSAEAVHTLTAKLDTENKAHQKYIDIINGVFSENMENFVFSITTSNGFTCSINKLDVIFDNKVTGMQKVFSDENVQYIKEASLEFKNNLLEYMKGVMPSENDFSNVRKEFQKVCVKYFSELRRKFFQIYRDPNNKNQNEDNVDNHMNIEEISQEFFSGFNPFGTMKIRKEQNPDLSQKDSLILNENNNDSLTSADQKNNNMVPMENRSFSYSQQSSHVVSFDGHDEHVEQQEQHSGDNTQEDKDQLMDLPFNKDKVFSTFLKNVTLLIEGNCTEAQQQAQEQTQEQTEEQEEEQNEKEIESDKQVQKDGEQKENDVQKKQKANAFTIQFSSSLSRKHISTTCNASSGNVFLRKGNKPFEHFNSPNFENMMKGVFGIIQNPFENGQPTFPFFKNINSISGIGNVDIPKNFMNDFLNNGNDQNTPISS

“PTP5_Tr2, GST-tagged recombinant PTP5 537 aa - 631 aa (domain or fragment)” gave a Kd [1] of 1.24 nM.

Work on “PTP5_Tr1, GST-tagged recombinant PTP5 36 aa - 334 aa (domain or fragment)” yielded a Kd [2] of 938 nM.

Work on B1 yielded a Kd [3] of 2.71 nM.

In the case of B2, the “stoichiometry N” value [4] is reported as 1.

B3: Pf3D7_0801000N, N-terminal truncate of Pf3D7_0801000 spanning 93 aa - 494 aa (domain or fragment)
chain: GANPESISLGYELSEKDEGNKNDLINSATDVSTELENLKERLFPELELYTNDQNSRNNTPNLRKGSLGFDSFKKLELGTLNQFDKDKMINLKDETNMNEFEGFLGRNSMASNVVTSELFDEPVDDSSSTTTSTGTKLQNVPSNDNNGELLKDEPIDDYINNNSKVESEDNYYAQQNMQSQSKDNYASEQNVADQSTDNYPTQHDVPVQLRDNYASEQEYFDRGEQLNDVSADNNTSNKLKDEPVDNNTSNKLKDEPVDNNTSNKLKDEPVDDNTSNKLKDEPVDNNTINKLKDEPVDDNTSNILKDEPVDDHAGKHLKDEPVDDHAGKHMKDEPVDIDRTNIKKGLNEQHVNPWTTTLADLKNINNSMKIEKNNKSNEQVKNTSVSKSCDIIKPSKFNKKNL
With B3 the Kd [5] was 45.4 nM.
